Five molecules from patent US20240069022A1 (ASAHI KASEI, published 2024) can be followed below.

In test [1] the target is T1, ribosome protein L7/L12 of Bacillus subtilis, native, in bacterial lysate (Bacillus subtilis, UniProt P02394 2-123).
T1 construct: also called BS; B. subtilis lysate
T1 sequence: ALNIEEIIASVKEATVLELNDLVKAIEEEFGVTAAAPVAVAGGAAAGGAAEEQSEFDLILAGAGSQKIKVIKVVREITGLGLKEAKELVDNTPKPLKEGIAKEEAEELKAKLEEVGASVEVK
Put plainly: ELISA, bacterial lysate coated.
Excerpt: (§1) The thus-produced Specific Antibodies A to C (antibodies of the present invention) and Generic Antibodies A and B were used to obtain data on the reactivity with plural genera of Enterobacteriaceae bacteria and bacteria other than Enterobacteriaceae (non-Enterobacteriaceae bacteria) by means of ELISA. […] The seven species of Enterobacteriaceae bacteria and four species of non-Enterobacteriaceae bacteria described above were purchased and cultured from ATCC, prepared at 1×e⁸ cfu/mL each, and suspended in PBS. Each bacterium was lysed by sonication, and debris was removed by filtration through a filter with a 0.45-μm mesh opening to obtain the bacterial lysate of each bacterium.
(§2) 50 μL of the above bacterial lysate was dropped into each well of a 96-well polystyrene plate for ELISA and solidified on the bottom of the plate. After washing each well three times with PBS-T (PBS with Tween 20), blocking treatment was performed with PBS containing 1% BSA (Bovine Serum Albumin). After blocking, the wells were washed three times with PBS-T, and 50 μL of 10 μg/mL solution of each of the Specific Antibodies A to C and Generic Antibodies A and B was dropped into each well for 1 hour for antigen-antibody reactions. After the reactions, the samples were washed three times with PBS-T, and then 0.5 μg/mL of HRP (Horse Radish Peroxidase) labeled secondary antibody (Goat Anti-mouse IgG: Goat Anti-mouse IgG), which is the enzyme for detection, was added dropwise. After the reaction, the wells were washed five times with PBS-T, and 100 μL of a mixture of tetramethylbenzidine (TMB) and hydrogen peroxide, the chromogenic substrate, was added dropwise to each well for the chromogenic reaction.

Test [2] concerns the target T2, ribosome protein L7/L12 of Pseudomonas aeruginosa, native, in bacterial lysate (Pseudomonas aeruginosa, UniProt Q9HWC8 1-122).
T2 construct: also called PA; P. aeruginosa lysate
T2 sequence: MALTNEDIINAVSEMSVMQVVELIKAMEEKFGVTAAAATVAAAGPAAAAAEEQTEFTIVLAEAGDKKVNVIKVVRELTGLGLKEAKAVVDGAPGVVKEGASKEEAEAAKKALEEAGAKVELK
Put plainly: ELISA, bacterial lysate coated. A general note: ELISA stands for enzyme-linked immunosorbent assay.
Excerpt: as §1, §2

Test [3] addresses T3, recombinant ribosomal protein L7/L12 of Bacillus subtilis, tag fusion protein (Bacillus subtilis, UniProt P02394 1-123).
T3 sequence: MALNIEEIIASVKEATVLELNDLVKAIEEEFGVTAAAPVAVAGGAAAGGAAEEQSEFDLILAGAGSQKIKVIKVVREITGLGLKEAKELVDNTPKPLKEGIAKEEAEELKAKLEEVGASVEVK
The test is described as follows: ELISA, recombinant L7/L12 (10 ng/mL) coated.
Excerpt: (§3) The thus-produced Specific Antibodies A to C (antibodies of the present invention) and Generic Antibodies A and B were used to obtain data on the reactivity with ribosome protein L7/L12 of plural genera of Enterobacteriaceae bacteria by means of ELISA. Seven species of Enterobacteriaceae bacteria were selected for the study: Escherichia coli (EC), Klebsiella pneumoniae (KP), Citrobacter freundii (CF), Enterobacter cloacae (ECL), Proteus mirabilis (PM), Salmonella enterica (SE), and Serratia liquefaciens (SL), which are frequently detected in food, beverage, environmental, or biological samples. Four species of bacteria other than Enterobacteriaceae (non-Enterobacteriaceae bacteria) were also selected for the study: Pseudomonas aeruginosa (PA), Staphylococcus aureus (SA), Bacillus subtilis (BS), and Enterococcus faecalis (EF), which are frequently detected in food, beverage, environmental, or biological samples. E. coli transformed with expression vectors incorporating DNA encoding the amino acid sequence of ribosomal protein L7/L12 of each of the above seven Enterobacteriaceae and four non-Enterobacteriaceae species were cultured using, e.g., LB medium, and the ribosomal protein L7/L12 was purified as a fusion protein by affinity columns using tag sequences derived from the expression vector.
(§4) 50 μL of 10 ng/mL solution of the ribosomal protein L7/L12 of each bacterial species was dropped into each well of a 96-well polystyrene plate for ELISA and solidified on the bottom of the plate. After washing each well three times with PBS-T (PBS with Tween 20), blocking treatment was performed with PBS containing 1% BSA (Bovine Serum Albumin). After blocking, the wells were washed three times with PBS-T, and 50 µL of 10 μg/mL solution of each of the Specific Antibodies A to C and Generic Antibodies A and B was dropped into each well for 1 hour for antigen-antibody reactions. After the reactions, the samples were washed three times with PBS-T, and then 0.5 μg/mL of HRP (Horse Radish Peroxidase) labeled secondary antibody (Goat Anti-mouse IgG: Goat Anti-mouse IgG), which is the enzyme for detection, was added dropwise. After the reaction, the wells were washed five times with PBS-T, and 100 μL of a mixture of tetramethylbenzidine (TMB) and hydrogen peroxide, the chromogenic substrate, was added dropwise to each well for the chromogenic reaction.

For test [4], the target named is T4, recombinant ribosomal protein L7/L12 of Pseudomonas aeruginosa, tag fusion protein (Pseudomonas aeruginosa, UniProt Q9HWC8 1-122).
T4 sequence: T2 sequence
Put plainly: ELISA, recombinant L7/L12 (10 ng/mL) coated.
Excerpt: as §3, §4

Test [5] deals with T1, ribosome protein L7/L12 of Bacillus …. Put plainly: lateral-flow sandwich kit (a) on lysate; capture Specific Antibody A, gold-labelled detection Generic Antibody A.
Test [6] concerns the target recombinant ribosomal protein L7/L12 of Escherichia coli, tag fusion protein (Escherichia coli, UniProt P0A7K2 1-121). The test is described as follows: ELISA, recombinant L7/L12 coated, antibody 10 ug/mL; +: A450 >=0.3.
Excerpt: as §3, §4

Chain of recombinant ribosomal protein L7/L12 of Escherichia coli, tag fusion protein (P0A7K2 whole entry, the tested form may be a part): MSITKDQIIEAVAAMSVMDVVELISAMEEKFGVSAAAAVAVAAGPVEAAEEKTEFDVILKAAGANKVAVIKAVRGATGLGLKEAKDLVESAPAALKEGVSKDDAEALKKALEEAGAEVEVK

B1: Specific Antibody B (EC149C3) (antibody, V domains shown)
VH: QVQLQQSGAELVKPGASVKLSCKASDYTFTNFYIYWVKQRPGQGLEWIGEINPSNGYTTFNVKFKSKATLTVDKSSSTAYMQLSSLTSEDSAVYYCTRNYGGSRCAYWGQGTLVTVSA
VL: DVLMTQTPLSLPVSLGDQASISCRSSQSIVHSNGNTYLEWYLQKPGQSPKLLIYKVSNRFSGVPDRFSGSGSGTDFTLKISRVEAEDLGVYYCFQGSHVPWTFGGGTKLEIK
In the case of B1, the binding result in test [1], in test [2], in test [3] and in test [4] was “no binding (tested: Absorbance <0.3 at 10 ug/mL antibody)” in each case.

B2: Specific Antibody A (EC50C1) (antibody, V domains shown)
VH: QVQLQQSGAELAKPGASVKMSCKASGYTFTSYWMNWVKQRPGQGLEWIGYINPNTGYTEYDQKFKDKATLTADKSSSTAYMQLSSLTSEDSAVYYCARYWAYFEYWGQGTTLTVSS
VL: DIKMTQSPSSMYASLGERVTITCKASQDINSYLSWFQQKPGKSPKTLIYRANRLVDGVPSRFSGSGSGQDYSLTISSLEYEDMGIYYCLQYDEFRTFGGGTKLEIK
Take B2: the binding result in test [2] is “no binding (tested: Absorbance <0.3 at 10 ug/mL antibody)”; in test [5], “no binding (tested: Visually negative)”; in test [6], “binds”; in test [3] it was “no binding (tested: Absorbance <0.3 at 10 ug/mL antibody)”; in test [4], “no binding (tested: Absorbance <0.3 at 10 ug/mL antibody)”.

B3: Specific Antibody C (EC162A3) (antibody, V domains shown)
VH: QVQLQQSGTELAKPGASVQMSCKASGYTFTSYWMHWVKQRPGQGLEWIGYINPNTGYTEYNQQFKDKATLTADKSSSTAYMQLSSLTSEDSAVYYCANYFAWFGYWGQGTLVTVSA
VL: DIKMTQSPSSMYASLGERVTVTCKASQDIYSYLNWFQQKPGKSPKTLIYRANRLVDGVPSRFSGSGSGQEYSLTISSLEHEDMGIYYCLQHDQHPYTFGSGTKLEIK
For B3, the binding result in test [1] is listed as “no binding (tested: Absorbance <0.3 at 10 ug/mL antibody)”; in test [2] it was “no binding (tested: Absorbance <0.3 at 10 ug/mL antibody)”; in test [6], “binds”; in test [3], “no binding (tested: Absorbance <0.3 at 10 ug/mL antibody)”; in test [4], “no binding (tested: Absorbance <0.3 at 10 ug/mL antibody)”.

B4: Generic Antibody A (PA51B2) (antibody, V domains shown)
VH: QVQLQQPGSVLVRPGASVKLSCKPSGYTFTGSWMHWTKQRPGQGLEWIGEIHPYSGNTNYNEKFRVKATLTVDTSSSTTYVDLSSLTSDDSAVYYCASGDFDAGFTYWGQGTLVTVSA
VL: DIVLTQSPASLAVSLGRRATISCKASQSVDYDGDSYMNWYQQKPGQPPKLLIYVASNLESGIPARFSGSGSGTDFTLNIHPVEEEDAATYYCQQTNEDPFTFGAGTKLELK
As for B4, in test [6], the binding result was “binds”.

B5: Generic Antibody B (CP141A190.1) (antibody, V domains shown)
VH: QVQLQQPGAELVKPGASVKLSCKTSGYNFTSNWIHWVKQRPGQGLEWIGEINPSNGRANYNEKFKNKATLTVDKSSSTAFMHLSSLTSEDSAVYFCSRGDFDEGFTYWGQGTLVTVSA
VL: QIVLTQSPAIMSASLGERVTMTCTASSNVNSDYLHWYQQKPGSSPRLWIYTTSNLASGVPTRFSGNGSGTSYSLTISSMEAEDAATYYCHQYHRSPRTFGGGTKLEIK
As for B5, in test [6], the binding result was “binds”.
